From patent US20060270596A1 (CENTRE NATIONAL DE LA RECHERCHE SCIENTIFIQUE CNRS, published 2006)

Target: T1, chemokine CXCL2 (UniProt P19875 1-107, limits assumed)
T1 construct: 35S-labelled in vitro translation product
T1 sequence (looked up): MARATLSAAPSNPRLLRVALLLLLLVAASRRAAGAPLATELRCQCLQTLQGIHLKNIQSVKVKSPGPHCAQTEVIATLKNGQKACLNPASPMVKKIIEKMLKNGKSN
Test: GST pull-down, 35S-labelled in vitro translated molecule

B1: GST-THAP3 181-284 (chemokine-binding domain of THAP3) (other)
chain: LPPNAEGHVKQVSPRRPQATEAVGRPTGPAGLRRTPNKQPSDHSYALLDLDSLKKKLFLTLKENEKLRKRLQAQRLVMRRMSSRLRACKGHQGLQARLGPEQQS
notes: not shown: GST (glutathione S-transferase of pGEX2T) and its linker at the N end
binding result: no binding
